Reference: patent US20090208489A1 (Takeda / Millennium, published 2009)

T1: OV064(32-282) expressed on transfected ES-2 ovarian carcinoma cells (human, UniProt Q7Z7D3 32-282)
T1 construct: also called ES-2_OV064; ES2/OV064
T1 sequence: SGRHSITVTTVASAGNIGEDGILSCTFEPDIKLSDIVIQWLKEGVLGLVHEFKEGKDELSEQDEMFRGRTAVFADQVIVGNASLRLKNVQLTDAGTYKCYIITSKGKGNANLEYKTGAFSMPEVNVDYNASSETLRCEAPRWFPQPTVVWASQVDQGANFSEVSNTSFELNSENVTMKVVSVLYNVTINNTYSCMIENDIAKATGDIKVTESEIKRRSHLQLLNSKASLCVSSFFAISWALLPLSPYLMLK

T2: OV064 peptide 157-176 (human)
T2 construct: 20-mer synthetic peptide on nitrocellulose; also called OV064 AA 157-176
T2 peptide: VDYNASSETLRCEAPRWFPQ

T3: OV064 peptide 177-196 (human)
T3 construct: 20-mer synthetic peptide on nitrocellulose; also called OV064 AA 177-196
T3 peptide: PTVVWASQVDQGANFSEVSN

T4: OV064 peptide 167-186 (human)
T4 construct: 20-mer synthetic peptide on nitrocellulose; also called OV064 AA 167-186
T4 peptide: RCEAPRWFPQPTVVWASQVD

T5: OV064 peptide 162-181 (human)
T5 construct: 20-mer synthetic peptide on nitrocellulose; also called OV064 AA 162-181
T5 peptide: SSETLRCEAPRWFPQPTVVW

T6: OV064 peptide 172-191 (human)
T6 construct: 20-mer synthetic peptide on nitrocellulose; also called OV064 AA 172-191
T6 peptide: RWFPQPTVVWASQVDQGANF

T7: OV064 peptide 238-257 (human)
T7 construct: 20-mer synthetic peptide on nitrocellulose; also called OV064 AA 238-257
T7 peptide: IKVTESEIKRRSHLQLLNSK

T8: OV064 peptide 237-256 (human)
T8 construct: 20-mer synthetic peptide on nitrocellulose; also called OV064 AA 237-256
T8 peptide: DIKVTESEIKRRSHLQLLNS


Experiments:
[1] = target: T1, OV064(32-282) expressed on transfected …; assay: flow cytometry on OV064 expressing cells
Experimental: Analysis of mAb by flow cytometry. 50,000-100,000 test cells were prepared in 100 ul phosphate buffered saline+1% fetal bovine serum (PBSS). 50 ul of test reagent (either hybridoma supernatants, mouse serum or purified mAb) was added, and incubated 30-45 min on ice, then washed 2-3 times in PBSS. 50 ul of fluorescently labeled secondary antibody (Anti-Mouse IgG or Anti-Human IgG) was then added, and incubated 30-45 minutes on ice and washed. The cells were then resuspended in 300 ul of PBSS and analyzed by flow cytometer (FACSCalibur, Becton Dickinson) to assess amount of cell surface bound antibody.
Each human mAb (mAb sc77, mAb sc189, and mAb sc209) bound purified recombinant OV064-His fusion protein in ELISA analysis.

[2] = target: T2, OV064 peptide 157-176; assay: peptide array (20-mer on nitrocellulose)
Experimental: (§1) Epitope mapping. A variety of techniques are available to determine epitopes specific for any particular antibody. For example, constructs of OV064 truncations were generated in a pCMV3 vector. Constructs representing amino acids 32-282, 133-282, 167-282 and 183-282 of the OV064 protein sequence were generated as N-terminally FLAG tagged proteins that when transfected into 293 cells, will be expressed on the cell surface. OV064 specific antibodies sc077, sc189, sc209 an 8G5 were tested for binding to these expressed constructs by flow cytometry, as described above. Furthermore, epitopes were analyzed using the Novatope system (Novagen Inc). Briefly, OV064 cDNA was treated with DNAse and fragments representing 15-600 bp were cloned into a bacterial expression vector. Each mAb was tested against 2000 clones representing OV064 fragments and each positive clone was picked and sequenced. The minimal common sequence between each of these clones was designated as the epitope to which each antibody bound. Additionally, a synthetic peptide map was utilized for identifying anti-OV064 epitopes. Briefly, 20 amino acid peptides each overlapping with 15 amino acids were printed on a nitrocellulose filter and incubated with anti-OV064 specific antibodies. Peptide spots that reacted strongly with the OV064 specific antibodies indicated the presence of an OV064 epitope.
(§2) As described above in the methods, various approaches to determine epitope mapping of OV064 specific mAbs were used. […] The other methods confirmed the results depicted in Table 5.

[3] = target: T3, OV064 peptide 177-196; assay: peptide array (20-mer on nitrocellulose)
Experimental: as §1, §2

[4] = target: T4, OV064 peptide 167-186; assay: peptide array (20-mer on nitrocellulose)
Experimental: as §1, §2

[5] = target: T5, OV064 peptide 162-181; assay: peptide array (20-mer on nitrocellulose)
Experimental: as §1, §2

[6] = target: T6, OV064 peptide 172-191; assay: peptide array (20-mer on nitrocellulose)
Experimental: as §1, §2

[7] = target: T1, OV064(32-282) expressed on transfected …; assay: cell-based or functional assay
[8] = target: T7, OV064 peptide 238-257; assay: peptide array (20-mer on nitrocellulose)
Experimental: as §1, §2

[9] = target: T8, OV064 peptide 237-256; assay: peptide array (20-mer on nitrocellulose)
Experimental: as §1, §2

FCM (MFI max) [1] [MFI] | binding result [2] | binding result [3] | binding result [4] | binding result [5] | binding result [6] | ICA (EC50) [7] [pM] | binding result [8] | binding result [9] | Binder
700 | binds | binds | binds | binds | binds | 53 | – | – | human monoclonal antibody mAb sc209 (antibody, human IgG1, kappa, V domains shown, Human IgG1 kappa; also called Ov64sc209) VH: GVQLVESGGGLVQPGGSLRLSCAASGFTISRNDMHWVRQATGKGLEWVSAIGTGGDTYYPGSVKGRFTISRENAKNSLYLQMNSLRAGDTAVYYCARGHMTTFGGFIVIGNGMDVWGQGTTVTVSS VL: not shown
820 | – | – | – | – | – | 60 | binds | binds | human monoclonal antibody mAb sc189 (antibody, human IgG1, kappa, V domains shown, Human IgG1 kappa; also called Ov64sc189) VH: EVQLVESGGGLVQPGGSLRLSCAASGFSFSSYDMHWVRQATGKGLEWVSGIDIAGDTYYPGSVKGRFTISRENAKNSLYLQMNSLRAGDTAVYYCARGDYDGTFDYWGQGTLVTVSS VL: DIVMTQTPLSSPVTLGQPASISCRSSQSLVHSDGNTYLSWLQQRPGQPLRLLFYKISNRFSGVPDRFSGSGAGTDFTLIINRVEAEDVGVYYCMHATQFPITFGQGTRLEIKR
780 | binds | – | binds | binds | binds | 123 | – | – | human monoclonal antibody mAb sc77 (antibody, human IgG1, kappa, V domains shown, Human IgG1 kappa; also called sc077; Ov64sc77) VH: QVQLVESGGGVVQPGRSLRLSCAASGFTFSSYGMHWVRQAPGKGLEWVAVIWYDGNNKYYADSVKGRFTISRDNSKNTLYLQMNSLRAEDTAVYYCARTSGIAAFDYWGQGTLVTVSS VL: not shown
